In patent US20200370085A1 one finds Kd data, which are given here for 3 substances.

This experiment concerns the target VEGF (UniProt P15692). The experiment can be described thus: solution equilibrium titration (SET) ELISA, crude IVT product 1:400, monovalent fit. On the technique in general: In an ELISA, binding on a coated surface is turned into a signal by an enzyme label.
UniProt P15692, sequence (P15692 other isoform, or with tags, fused parts or gaps limits assumed): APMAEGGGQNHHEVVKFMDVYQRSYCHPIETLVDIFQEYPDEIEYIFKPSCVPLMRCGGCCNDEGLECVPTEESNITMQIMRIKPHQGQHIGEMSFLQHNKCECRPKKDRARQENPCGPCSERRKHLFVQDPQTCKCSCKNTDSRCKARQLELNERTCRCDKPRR
Regarding [N31H] Avastin scFv, the Kd (usually the free concentration of one partner at which half of the binding sites on the other are occupied at equilibrium, for simple one-to-one binding) worked out at 4.03 pM.
In the case of [H101Y] Avastin scFv it was 11.1 pM.
Under [S105T] Avastin scFv stands 8.99 pM.
